Reference: US7259254B2, “Mutants and assay system to identify USP/RXR ligands” (University of Kentucky Research Foundation, priority 2002, dated 2007)

B1: P498W/P499W/W318F/W328F: USP mutant, tryptophan at 498 and 499, phenylalanine at 318 and 328 (protein)
chain: MDNCDQDASFRLSHIKEEVKPDISQLNDSNNSSFSPKAESPVPFMQAMSMVHVLPGSNSASSNNNSAGDAQMAQAPNSAGGSAAAAVQQQYPPNHPLSGSKHLCSICGDRASGKHYGVYSCEGCKGFFKRTVRKDLTYACRENRNCIIDKRQRNRCQYCRYQKCLTCGMKREAVQEERQRGARNAAGRLSASGGGSSGPGSVGGSSSQGGGGGGGVSGGMGSGNGSDDFMTNSVSRDFSIERIIEAEQRAETQCGDRALTFLRVGPYSTVQPDYKGAVSALCQVVNKQLFQMVEYARMMPHFAQVPLDDQVILLKAAFIELLIANVAFCSIVSLDDGGAGGGGGGLGHDGSFERRSPGLQPQQLFLNQSFSYHRNSAIKAGVSAIFDRILSELSVKMKRLNLDRRELSCLKAIILYNPDIRGIKSRAEIEMCREKVYACLDEHCRLEHPGDDGRFAQLLLRLPALRSISLKCQDHLFLFRITSDRPLEELFLEQLEAWWPPGLAMKLE
B2: P498W/P499W/W318F: USP mutant, tryptophan at 498 and 499, phenylalanine at 318 (protein)
chain: MDNCDQDASFRLSHIKEEVKPDISQLNDSNNSSFSPKAESPVPFMQAMSMVHVLPGSNSASSNNNSAGDAQMAQAPNSAGGSAAAAVQQQYPPNHPLSGSKHLCSICGDRASGKHYGVYSCEGCKGFFKRTVRKDLTYACRENRNCIIDKRQRNRCQYCRYQKCLTCGMKREAVQEERQRGARNAAGRLSASGGGSSGPGSVGGSSSQGGGGGGGVSGGMGSGNGSDDFMTNSVSRDFSIERIIEAEQRAETQCGDRALTFLRVGPYSTVQPDYKGAVSALCQVVNKQLFQMVEYARMMPHFAQVPLDDQVILLKAAFIELLIANVAWCSIVSLDDGGAGGGGGGLGHDGSFERRSPGLQPQQLFLNQSFSYHRNSAIKAGVSAIFDRILSELSVKMKRLNLDRRELSCLKAIILYNPDIRGIKSRAEIEMCREKVYACLDEHCRLEHPGDDGRFAQLLLRLPALRSISLKCQDHLFLFRITSDRPLEELFLEQLEAWWPPGLAMKLE
B3: W318F/W328F: USP mutant, phenylalanine at positions 318 and 328 (protein)
chain: MDNCDQDASFRLSHIKEEVKPDISQLNDSNNSSFSPKAESPVPFMQAMSMVHVLPGSNSASSNNNSAGDAQMAQAPNSAGGSAAAAVQQQYPPNHPLSGSKHLCSICGDRASGKHYGVYSCEGCKGFFKRTVRKDLTYACRENRNCIIDKRQRNRCQYCRYQKCLTCGMKREAVQEERQRGARNAAGRLSASGGGSSGPGSVGGSSSQGGGGGGGVSGGMGSGNGSDDFMTNSVSRDFSIERIIEAEQRAETQCGDRALTFLRVGPYSTVQPDYKGAVSALCQVVNKQLFQMVEYARMMPHFAQVPLDDQVILLKAAFIELLIANVAFCSIVSLDDGGAGGGGGGLGHDGSFERRSPGLQPQQLFLNQSFSYHRNSAIKAGVSAIFDRILSELSVKMKRLNLDRRELSCLKAIILYNPDIRGIKSRAEIEMCREKVYACLDEHCRLEHPGDDGRFAQLLLRLPALRSISLKCQDHLFLFRITSDRPLEELFLEQLEAPPPPGLAMKLE
B4: W318F: USP mutant, phenylalanine at position 318 (protein)
chain: MDNCDQDASFRLSHIKEEVKPDISQLNDSNNSSFSPKAESPVPFMQAMSMVHVLPGSNSASSNNNSAGDAQMAQAPNSAGGSAAAAVQQQYPPNHPLSGSKHLCSICGDRASGKHYGVYSCEGCKGFFKRTVRKDLTYACRENRNCIIDKRQRNRCQYCRYQKCLTCGMKREAVQEERQRGARNAAGRLSASGGGSSGPGSVGGSSSQGGGGGGGVSGGMGSGNGSDDFMTNSVSRDFSIERIIEAEQRAETQCGDRALTFLRVGPYSTVQPDYKGAVSALCQVVNKQLFQMVEYARMMPHFAQVPLDDQVILLKAAFIELLIANVAWCSIVSLDDGGAGGGGGGLGHDGSFERRSPGLQPQQLFLNQSFSYHRNSAIKAGVSAIFDRILSELSVKMKRLNLDRRELSCLKAIILYNPDIRGIKSRAEIEMCREKVYACLDEHCRLEHPGDDGRFAQLLLRLPALRSISLKCQDHLFLFRITSDRPLEELFLEQLEAPPPPGLAMKLE
B5: Q288A: dUSP mutant, Gln288 mutated to alanine (protein)
chain: MDNCDQDASFRLSHIKEEVKPDISQLNDSNNSSFSPKAESPVPFMQAMSMVHVLPGSNSASSNNNSAGDAQMAQAPNSAGGSAAAAVQQQYPPNHPLSGSKHLCSICGDRASGKHYGVYSCEGCKGFFKRTVRKDLTYACRENRNCIIDKRQRNRCQYCRYQKCLTCGMKREAVQEERQRGARNAAGRLSASGGGSSGPGSVGGSSSQGGGGGGGVSGGMGSGNGSDDFMTNSVSRDFSIERIIEAEQRAETQCGDRALTFLRVGPYSTVQPDYKGAVSALCQVVNKALFQMVEYARMMPHFAQVPLDDQVILLKAAWIELLIANVAWCSIVSLDDGGAGGGGGGLGHDGSFERRSPGLQPQQLFLNQSFSYHRNSAIKAGVSAIFDRILSELSVKMKRLNLDRRELSCLKAIILYNPDIRGIKSRAEIEMCREKVYACLDEHCRLEHPGDDGRFAQLLLRLPALRSISLKCQDHLFLFRITSDRPLEELFLEQLEAPPPPGLAMKLE
B6: W328F: USP mutant, phenylalanine at position 328 (protein)
chain: MDNCDQDASFRLSHIKEEVKPDISQLNDSNNSSFSPKAESPVPFMQAMSMVHVLPGSNSASSNNNSAGDAQMAQAPNSAGGSAAAAVQQQYPPNHPLSGSKHLCSICGDRASGKHYGVYSCEGCKGFFKRTVRKDLTYACRENRNCIIDKRQRNRCQYCRYQKCLTCGMKREAVQEERQRGARNAAGRLSASGGGSSGPGSVGGSSSQGGGGGGGVSGGMGSGNGSDDFMTNSVSRDFSIERIIEAEQRAETQCGDRALTFLRVGPYSTVQPDYKGAVSALCQVVNKQLFQMVEYARMMPHFAQVPLDDQVILLKAAWIELLIANVAFCSIVSLDDGGAGGGGGGLGHDGSFERRSPGLQPQQLFLNQSFSYHRNSAIKAGVSAIFDRILSELSVKMKRLNLDRRELSCLKAIILYNPDIRGIKSRAEIEMCREKVYACLDEHCRLEHPGDDGRFAQLLLRLPALRSISLKCQDHLFLFRITSDRPLEELFLEQLEAPPPPGLAMKLE
B7: P498W/P499W: USP mutant, two prolines at end of α-helix 12 replaced with tryptophan (protein)
chain: MDNCDQDASFRLSHIKEEVKPDISQLNDSNNSSFSPKAESPVPFMQAMSMVHVLPGSNSASSNNNSAGDAQMAQAPNSAGGSAAAAVQQQYPPNHPLSGSKHLCSICGDRASGKHYGVYSCEGCKGFFKRTVRKDLTYACRENRNCIIDKRQRNRCQYCRYQKCLTCGMKREAVQEERQRGARNAAGRLSASGGGSSGPGSVGGSSSQGGGGGGGVSGGMGSGNGSDDFMTNSVSRDFSIERIIEAEQRAETQCGDRALTFLRVGPYSTVQPDYKGAVSALCQVVNKQLFQMVEYARMMPHFAQVPLDDQVILLKAAWIELLIANVAWCSIVSLDDGGAGGGGGGLGHDGSFERRSPGLQPQQLFLNQSFSYHRNSAIKAGVSAIFDRILSELSVKMKRLNLDRRELSCLKAIILYNPDIRGIKSRAEIEMCREKVYACLDEHCRLEHPGDDGRFAQLLLRLPALRSISLKCQDHLFLFRITSDRPLEELFLEQLEAWWPPGLAMKLE

These molecules were tested on 4DR12Core reporter promoter in Sf9 cells (endogenous USP) (assay: Dominant negative activity of transfected dUSP mutants on methyl epoxyfarnesoate activation of 4DR12Core reporter in Sf9 cells). Details: Table 1, mutants envisioned.
Assay type: cell-based, Spodoptera frugiperda
Description: In another embodiment, mutant nuclear hormone receptors disclosed herein comprise amino acid substitutions that render the mutant to act as a “dominant negative.” Dominant negative proteins exploit protein-protein interactions, i.e., the interactions between a mutated protein produced by a transgene and the related native protein inside the cell. The mutant protein forms a dimer with an integral part of a wild type endogenous protein molecule. The mutant protein interacts with a whole range of native compatible gene products. Preferably, the mutant homodimerizes or heterodimerizes with an endogenous wild type partner to form a complex following ligand or independent of ligand binding. Preferably, as opposed to a complex of wild type monomers, a complex of a mutant and its endogenous wild type partner will be incapable of initiating transcription at a hormone receptor response reporter gene. Assays for determining dominant negative activity may be found in Examples 6 and 7 as well as FIG. 4.
Spodoptera frugiperda cell line, Sf9, was maintained and transfected as described previously Jones et al (1998) Biochem. J. 335, 79-84; Jones et al. (2000) Biochem. J. 346, 233-240. As an internal control to compare activities of different constructs, 0.3 μg of a constituitive heat-shock promoter-driven β-galactosidase gene was cotransfected. To study the role of USP in activation of the nuclear hormone receptor response element fused to core promoter in methyl epoxyfarnesoate-treated cells, cloned D. melangaster USP (dUSP) cDNA and its derivatives containing mutations in the ligand-binding pocket were cotransfected with the reporter and internal control plasmids. […] After 48 h of the treatment, the cells were harvested and the activity of the luciferase reporter was measured using a luciferase assay kit (Promega) in a multipurpose scintillation counter (Beckman, Fullerton, Calif.). β-Galactosidase activity was measured using chlorophenol red-[…] monosodium (CPRG; Roche Molecular Biochemicals) as a colorimetric substrate.
His-tagged dUSP dominant negative double mutant Cys472Ala/His475Leu (C472A/H475L) was over expressed in methyl epoxyfarnesoate-treated Sf9 cells that were cotransfected with the 4DR12Core reporter plasmid.
Under the model that overexpression of the C472A/H475L double mutant competed with endogenous USP in the pathways for transduction of the exogenous methyl epoxyfarnesoate signal, the level of effect of the double mutant ought to be dependent on its dose. […] This background of the blocked activation pathway was used to test whether activation by methyl epoxyfarnesoate treatment was actually dependent on the presence of wild-type USP. […] Again, over the range of the monotonic restoration of methyl epoxyfarnesoate-activated transcription, there was no effect of the transfected wild-type dUSP on the basal level of transcription in EtOH-treated controls.

Which “Dominant Negative Activity” value does the source give for B1 here?
The value was “Weak Activity”.

How did the “Dominant Negative Activity” value turn out when B2 was run?
Its value is “Weak Activity”.

B3 was tested. Which “Dominant Negative Activity” value did it give?
Its value is “Weak Activity”.

With B4 as the molecule, how does the “Dominant Negative Activity” value read?
The value was “Weak Activity”.

Same assay, conditions: receptor overexpressed in Sf9 cells, 75 μm methyl epoxyfarnesoate

How did the “dominant negative effect on methyl epoxyfarnesoate-induced activation of 4DR12Core promoter” value (“dominant negative effect” for short) turn out when B5 was run?
Its value is “acted as a dominant negative suppressor”.

With B6 as the molecule, how does the “dominant negative effect” value read?
Its value is “not a dominant negative”.

B7 was tested. Which “dominant negative effect” value did it give?
The value was “not a dominant negative”.

With B4 as the molecule, how does the “dominant negative effect” value read?
The value was “weak dominant negative”.
